Test: soluble on expression in E. coli; label from the status in PepcDB or PDB records

Row | Sequence | soluble on expression in E. coli
1 | VNKSELIEAIAQEADISKAAAQKALDATTNAVTTALKQGDTVTLVGFGTFYVGERAERQGRNPKTGEPLTIAAAKTPKFRAGKALKDAL | soluble
2 | GMASVLSAATATDQGPVRENNQDACLADGILYAVADGFGARGHHASATALKTLSAGFAAAPDRDGLLEAVQQANLRVFELLGDEPTVSGTTLTAVAVFEPGQGGPLVVNIGDSPLYRIRDGHMEQLTDDHSVAGELVRMGEITRHEARWHPQRHLLTRALGIGPHIGPDVFGIDCGPGDRLLISSDGLFAAADEALIVDAATSPDPQVAVRRLVEVANDAGGSDNTTVVVIDLG | soluble
3 | MGSDKIHHHHHHMKTWTPDLSRSDGPRYLAIADVIEMDLKSGRLLVGDRLPPQRDLAKRLAIDFTTVARGYVEAQKRGLVATHVGRGTFVTGGPEKERRGFVSEAALDARRMSVVDFSMNMPPEPDDPDLLARMQEGLSAVATNMIPLLRYQGFGGAGMDKEAAASWLSRRGLVPSQERIFVTPGAHPALLAIFGLLAKPGEMVLSENITYPGMRSIAAQLRLNLTGLPMDADGIIPGAFAEICETAKPKALYLNPTLQNPMTLTIPEKRREEICAVARKYHVPIVEDDAYGFIPLHSPAPLAAMAPDLTWHIGGLAKCIGAGLRLAYVVVPDTKAAWPFASAMRAASVMASPLSAALATRWIEDGTADSILRFIRTEAAARQALVAEVLPAGSYQSDPISFNIWLPLTNGWTRSTFGTHMRASGIGVVASDAFTVDGVAEEAVRVCLGGPIRRETLKGALEFMGHALEGSPQMAGTFF | not soluble
4 | MSLKQQLIKNGLVLDMKGNHKPQAKDILIEGKWIRDIRPNIEPEVDTEIIDAEGKIVMPGFVDTHRHVWESLLRHIGTDWTLLTYLDNLYYGNLGSMLTPEDSYIANLWGALEAIDAGVTTVLDWSMLETPEHADASIKGLQAAGIRAVFAHGTPGYETYWSRDSEVRHPKDAKRVKKEYFQSDDQLLTMALAIRGPEFSSWEVTLDDIQLARELDAIASMHIGFGTWGPHDRSITRMREAGLLDSDLNLVHVNRIQPHEYEYIAESGASLSVTPEVEMMMGHGYPATGYLHKHRGLVTLGVDVVVATAGDMFAQMKFALQAERAWQNEQRLDRGEMPEQLKMTTNDVLTFATLNGAKALKLDDKIGTLDVGKEADLLLINPSSFNLFPLNHEPVGAVVQSARPENVDSVFIAGRPVKRHGKLLFDDLDGLRNKVLAASEAVFHRQAAKNEGHHHHHH | soluble
5 | MTVTFYSYPKCGTCQKAKKWFEANDVAYEMIHIVENPPSKEDLRNLHEKSELPLKKFFNTSGMRYRELGLKDKLKDASEDEMYELLASDGMLIKRPIVTDGTNVTLGFNEEQFESVWKKYQ | not soluble
6 | LNDPLDSGRFSRKQLDKKYKHAGDFGISDTKKNRETLTKFRDAIEEHLSDKDTVEKGTYRREKGSKVYFNPNTMNVVIIKSNGEFLSGWKINPDADNGRIYLETGEL | soluble
7 | MTILPVKKKREKDSQQRSVSTIGSSAENSRQQLSGPSCSSSASSSSSAAKRIRSQEDGPPSKRWVLSASSTSSTNKSPIPSSSPVLPPPQPEIEPNRSQSPGNADYNSDDEYEMQNIRDDEIETEFSNRLAARGLIIKEMVGDGACMFRSIAEQIYGDQEMHGQIRRLCMDYMSNNRDHFKEFITENFENYIQRKREENVHGNHVELQAISEIKKKSNYILKNSLHSINSEPINVLLPRPEPEATALTDGSASTSNAAPPPSTVPIQQNPPLRLSYHRAVHYNAILAPNIPTIGIGLGLPGMIPGSADKELMSTAMKTSELEHIEETMLQDKIDMTDFQRTQADIEDQITRESLISYLNDFEKSKNAPSTSAGAPGPSNFSGEPPVSGSGLYEEMLAAQSLEWDAYTDDVAIAEAMLVSQQDYMSNKPSTSSSGSGPSTSE | not soluble
8 | MIKMAQLEDIRKMYFMEGLSIREINRRTGIHRDTISKYISLEEPKPPKYKLTKERTHPVLGPYIPMIKQIIEDDKTRHRKQRHTGTKIFETLKKEGFSGGYNTVMDYLRKEYRKQREAFLPLEFELGAYAEVDWTEAYFYLKGKETKAHLFVMKLRGSGGFYVRAYPFEKQEAFFDGHIKCFEFMNG | not soluble
9 | MNIERKQAKQKEISSGHSFLEWGMTILKMPPAKRIKMVRDGVKVTHLVGAGRYYGISQAKLSKLLGISDATITRKIRSSGKLGPLESERLARIALIEAEAEKVFDSSDLAKRWMLESNLALGESPLSLLDTDMGADEVRKVLASIAYGGIA | not soluble
10 | MADMKNKYDVKRIIPDELSESLDIFLKNYSETGLSDYNTYLFYGFILKSYKLPRENRYSIKLLVKELQNRGLKVTLIINIYYHALNCLALNDGLKIYGEDFLI | not soluble
11 | MGSDAKNLMSDGNVQIVKTGEVIGATQLTEGELIVEAGGRAENTVVTGAGWLKVATGGIAKCTQYGNNGTLSVSDGAIATDIVQSEGGAISLSTLATVNGRHPEGEFSVDKGYACGLLLENGGNLRVLEGHRAEKIILDQEGGLLVNGTTSAVVVDEGGELLVYPGGEASNCEINQGGVFMLAGKASDTLLAGGTMNNLGGEDSDTIVENGSIYRLGTDGLQLYSSGKTQNLSVNVGGRAEVHAGTLENAVIQGGTVILLSPTSADENFVVEEDRAPVELTGSVALLDGASMIIGYGAELQQSTITVQQGGVLILDGSTVKGDSVTFIVGNINLNGGKLWLITDAATHVQLKVKRLRGEGAICLQTSAKEISPDFINVKGEVTGDIHVEITDASRQTLCNALKLQPDEDGIGATLQPA | soluble
12 | MNRMRRSTAFSEHVTFHTVMAKRGTGSKLDREVEIQFTNLQLIGTGSFGAVYKAVLRENDEPIAIKKIKVDDRFKSRELTIMHEMDHPNIIRLLYYYVMQQENCLNFVMEFMPKDLAYVHRQFAHNDKQMPAYSIKLYMFQLLRGIGFLHLHNIVHRDIKPKNLLVDESNGILKICDFGSAKRLEKNEPNITYICSRYYRAPELIFGSKNYDTSIDTWSVGTVVGELLHNSPIFLADSAVDILALQIKAFGTPSKEDMAKWNYEYVHIPYDTITGVGIQKFIGRKLSLSTLELLNSLMKMDPKLRIKPYEALTLPYFDDLRDPHYKLPSGAPIPPLFDWLEREYIANHEIIKDIFPRSEEGDKVECL | not soluble
13 | RYPTNNFGNCTGCSATFSVLKKRRSCSNCGNSFCSRCCSFKVPKSSMGATAPEAQRETVFVCASCNQTLSK | soluble
14 | MGSDKIHHHHHHMHAIGFTDHLPIEDPASLRDVTISKPSAQGHDLLVQVQAVAVNPVDVSVRKTGHEHRMRPKILGWDATGIVTAVGEAVTLFQPGDHVFYAGSFRRPGCDSAYHLVDERLVGHAPATLTTAARAAMPLTSLTAYEALFEQLHIPFDPAKPNSEKCNQTILIINGAGGVGSIATQLAKLAGLTVISSASRPESIAWTQQHGADLVVNHHHDLVSEVHALGIKDVDYILGLSDLDSHWNEICTLIKPGGHIASITENRRPIDLKKLTKKRGTFAWEWMYSKSYYHTADMISQHDILETIADLLDRGLLQSTLSQTLRPINALNLRQAHQLIEQHHMIGKVVIEGWE | not soluble
15 | MSEGSGDQSQQRPWASPRQQPIKGIVQPRVLPPFGKPTRHTNKLDYIMTTVLKEAGKHKHVWPFQKPVDAVALCIPLYHERVARPMDLKTIENRLKSTYYTCAQECIDDIETVFQNCYTFNGKEDDVTIMAQNVHEVIKKSLEQAPREEHDMDVYWGKNKKKPAKSDGGSKSSSSKKNDARGPSEAPSEAGSEVSSVTTASAAAPTVSESASVAAKPERKVAGKKTGKRKAESEDDEKPEPLRAKREVAVVKKEVHQPLLPSMKPCLKLLNDFSTKKYQEFAWPFNEPVDAEQLGLHDYHKIIKEPMDLKSMKAKMESGAYKEPSDFEHDVRLMLRNCFLYNPVGDPVHSFGLRFQEVFDRRWAELGDSSSRASSVAPQSAPIAPTPKVAKSSAPKEPKESRKEHKKETTFEASGAKSEDLMQINNALSMIREREEKLKAELAAAQAIKDKLTSVKNRREDNPNEPFPEKLINETRALCTTQVGQNASSSSASSAALRNGRSKKAASARLYGYEFDSDDEDNKMALTYEEKRNLSNLINNLPNNQLNTIISIIQRRERSALMQQQLDDSEVELDFESLGDMCLREMGAFIKTIPTLNGNGDDEKPKTSSNPTSSGATGSKGSSSLESKNGKKKKNFNMSESSDDETSNSRKRRKRESSESQSSSSSDDDSDDEDRPSIPRKSGQPPSTSREWNQSSAPPPRMGGMGGQPPMSRVPASSSTSVSAIGKNNAAASSNSYRYRCFFVRKLNLKISNKKKWKSKKNSTNLVFRSSKTCTSTSTNIIKTSGSTETTVKTKENGRNQQRRLRLDHQRKANPGMVKTSRPGFRGCGWRQSEPAKKKTKAVSRCQTKWK | not soluble
16 | MGSDKIHHHHHHMKKKTAVVFGTFAPLHQGHIDLIQRAKRQCDQVWVVVSGYEGDRGEQVGLTLQKRFRYIREAFRGDELTLVCKLDETNLPRYPMGWQEWLDQMLAEISYDETQQELIFFVGEADYQQELSNRGFETVLQERKFGISATMIRENPSKYWKNIAQPFRRQFTKKVLIMGSASNGKTTLAKDLARYYDAPVSLEYAREYQIKNNVRDDELTPKDYYYLLLGQYDQTSKLIDSNANRGLVIADTNSLVTKGYYDYYMETEDQGDLSGETFDNLFVSILAKEKWDLILFVQPVGSYVNDGFRDMTMAEDHIRHSFSQHLDHMRERYLTTIPLVYLAEDYLGNYEAAKVAIDAIYQAD | not soluble
17 | MNLKEFIIPAIDLMEGKAVRLYKGDFNKVKVYSERPWELAKNFSDLGFKRLHVVDLEGAEGGKPKNLEVIRKIRENFEGEVEVGGGIRSYEVAKALFDEGIDFVVIGTLAYKNKEEFLKILENFPNRVILAIDSKQGKVAIGGWKEETAVSPEEFAKEYENYPIWGYLYTVIERDGSLEGVDVEPYKEIKKHVKKPVIASGGVSSLEDIKKLYGIVEGVVVGKAIYEGRITLEDLQNF | soluble
18 | MNRWEGLDEFVAVAETGQFTAAAERMGVSSSHISRQVARLEERLQTRLLYRSTRRVSLSEAGQTFLQHCQRLQDARDEALRAVSDLSAEPKGLLRMTCAVAYGERFIVPLVNAFMADYPQLRVDIELSNRQLDLLHEGFDLAIRLGRLSDSRLVATRLAPRVMYLCATPEYLRRHGTPQSPAELGQFNCLIGSSDLWSFLEDGRETQHRVQGNWRCNSGQAVLDAALRGFGLCQLPDYYVIEHLRSGRLASLLEGHQPPNTAVWALYPQQRHLSPKVRQLVDYLKEGLAQSHPGLAGEKNLR | not soluble
19 | MGSDKIHHHHHHWQVTGSKTTQDGVEAARMCGIDSYPLRLEPQLVCDTEDLDALMNVDALVITLPARRTGAGEGFYLQAVQEIVDTALAYHIPRIVFTSSTSVYGNVNGTVKENSPRLPQTASGQVLKELEDWLHNLPGTSVDILRLAGLVGPSRHPGRFFAGKSAPDGQHVVNLVHLQDVVAAIELLLQAPKGGHIYNLCAPRHPARGLFYPQMARELGLPPPVFSDSPDGGQGKIVDGNRICNELGFEYQYPDPLVMPME | not soluble
20 | MIMFNYQQTSQSCVKCGKCIPSCTIYNIHPDEVTSPRGFIDLLGAYQRGELELDKNAKDIFEKCFLCTNCTYVCPNLLPTDQVIENVRAEIAQKFGIAWFKRAYFFLLRNRWLMDWGLEHHHHHH | not soluble
21 | MGSDKIHHHHHHMKLMRIQEMEEYILSHGTVSLDELCQVFNVSKNTVRRDINKLTEKGAIEKVYGGVTSIEKTALVPFENRTIQHQDEKTKIAHYASRFIEDHDLVFIDSGTTTKSILDTLDPAKNVTILTNSLDIINAASALKNINLIIIGNNYKRKTRSFVGMDDPAMLDKYNINKAFMSATGTTLTHGLTNSDLLEYEIKKRISEKAKEVYLLADHSKFGKSTLLTYAPFDRLHCIVTSQPLDDEYTQYCNEHQIGIHLA | not soluble
